The results in this text go back to patent US20090258013A1 (Genentech, published 2009).

T1: ESAM (library protein) (UniProt Q96AP7 30-248, limits assumed)
T1 sequence (looked up): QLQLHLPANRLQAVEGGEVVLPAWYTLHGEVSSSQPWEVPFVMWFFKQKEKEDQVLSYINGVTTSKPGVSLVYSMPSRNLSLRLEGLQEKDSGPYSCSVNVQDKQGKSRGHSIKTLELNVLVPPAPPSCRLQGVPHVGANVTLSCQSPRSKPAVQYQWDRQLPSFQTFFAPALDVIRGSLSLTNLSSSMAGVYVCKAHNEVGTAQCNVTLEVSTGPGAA

T2: TNFRSF10C (library protein) (UniProt O14798 26-236, limits assumed)
T2 sequence (looked up): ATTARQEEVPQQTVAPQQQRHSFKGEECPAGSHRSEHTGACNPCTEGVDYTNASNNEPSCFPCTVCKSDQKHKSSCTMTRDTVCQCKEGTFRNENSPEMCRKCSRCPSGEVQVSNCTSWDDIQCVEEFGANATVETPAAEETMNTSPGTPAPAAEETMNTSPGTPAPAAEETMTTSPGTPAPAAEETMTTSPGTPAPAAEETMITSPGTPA

T3: IGFBP4 (library protein) (UniProt P22692 22-258)
T3 sequence (looked up): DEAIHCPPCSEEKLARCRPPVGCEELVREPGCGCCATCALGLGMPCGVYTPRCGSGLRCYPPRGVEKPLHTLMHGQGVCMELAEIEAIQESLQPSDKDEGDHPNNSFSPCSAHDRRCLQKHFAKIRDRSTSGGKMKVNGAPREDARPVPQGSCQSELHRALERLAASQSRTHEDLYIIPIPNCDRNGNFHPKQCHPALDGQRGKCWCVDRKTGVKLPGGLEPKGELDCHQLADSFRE

T4: IL-19 (library protein) (UniProt Q9UHD0 25-177)
T4 sequence (looked up): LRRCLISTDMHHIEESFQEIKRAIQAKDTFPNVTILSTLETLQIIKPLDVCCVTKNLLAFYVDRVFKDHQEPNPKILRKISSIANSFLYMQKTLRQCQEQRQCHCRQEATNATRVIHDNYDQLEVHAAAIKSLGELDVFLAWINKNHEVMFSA

B1: CD226-Fc (amino acids 1-259 of CD226 fused to the Fc region of human IgG1) (Fc fusion, UniProt Q15762 19-259, looked up)
chain: EEVLWHTSVPFAENMSLECVYPSMGILTQVEWFKIGTQQDSIAIFSPTHGMVIRKPYAERVYFLNSTMASNNMTLFFRNASEDDVGYYSCSLYTYPQGTWQKVIQVVQSDSFEAAVPSNSHIVSEPGKNVTLTCQPQMTWPVQAVRWEKIQPRQIDLLTYCNLVHGRNFTSKFPRQIVSNCSHGRWSVIVIPDVTVSDSGLYRCYLQASAGENETFVMRLTVAEGKTDNQYTLFVAGGTVL
notes: range 1-259; also called DNAM; not shown: Fc region of human IgG1
B2: PVR-Fc fusion protein (Fc fusion, UniProt P15151 21-343, looked up)
chain: WPPPGTGDVVVQAPTQVPGFLGDSVTLPCYLQVPNMEVTHVSQLTWARHGESGSMAVFHQTQGPSYSESKRLEFVAARLGAELRNASLRMFGLRVEDEGNYTCLFVTFPQGSRSVDIWLRVLAKPQNTAEVQKVQLTGEPVPMARCVSTGGRPPAQITWHSDLGGMPNTSQVPGFLSGTVTVTSLWILVPSSQVDGKNVTCKVEHESFEKPQLLTVNLTVYYPPEVSISGYDNNWYLGQNEATLTCDARSNPEPTGYNWSTTMGPLPPFAVAQGAQLLIRPVDKPINTTLICNVTNALGARQAELTVQVKEGPPSEHSGISRN
notes: Found in a library of secreted proteins fused to hexahistidine or Fc tags; also called poliovirus receptor; not shown: Fc tag
B3: gD-tagged full-length TIGIT expressed on stably transfected CHO cells (receptor)
chain: KYALADASLKMADPNRFRGKDLPVLMMTGTIETTGNISAEKGGSIILQCHLSSTTAQVTQVNWEQQDQLLAICNADLGWHISPSFKDRVAPGPGLGLTLQSLTVNDTGEYFCIYHTYPDGTYTGRIFLEVLESSVAEHGARFQIPLLGAMAATLVVICTAVIVVVALTRKKKALRIHSVEGDLRRKSAGQEEWSPSAPSPPGSCVQAEAAPAGLCGEQRGEDCAELHDYFNVLSYRSLGNCSFFTETG
notes: also called CHO-TIGIT; CHO cells expressing TIGIT
B4: TIGIT-Fc (amino acids 1-138 of human TIGIT fused immediately preceding the Fc region of human IgG1) (Fc fusion)
chain: APLASGMMTGTIETTGNISAEKGGSIILQCHLSSTTAQVTQVNWEQQDQLLAICNADLGWHISPSFKDRVAPGPGLGLTLQSLTVNDTGEYFCIYHTYPDGTYTGRIFLEVLESSVAEHGARF
notes: Expressed in CHO cells; Biotinylated for flow cytometry and 125I-iodinated for radioligand assays; also called TIGIT-Fc fusion protein; not shown: Fc region of human IgG1
B5: OTOR (library protein) (other, UniProt Q9NRC9 18-128, looked up, not shown: a dimerising Fc or GST)
chain: VHGIFMDRLASKKLCADDECVYTISLASAQEDYNAPDCRFINVKKGQQIYVYSKLVKENGAGEFWAGSVYGDGQDEMGVVGYFPRNLVKEQRVYQEATKEVPTTDIDFFCE
B6: CD96-Fc (amino acids 1-500 of CD96 fused to the Fc region of human IgG1) (Fc fusion, UniProt P40200 22-500, looked up, not shown: a dimerising Fc or GST)
chain: VWEKTVNTEENVYATLGSDVNLTCQTQTVGFFVQMQWSKVTNKIDLIAVYHPQYGFYCAYGRPCESLVTFTETPENGSKWTLHLRNMSCSVSGRYECMLVLYPEGIQTKIYNLLIQTHVTADEWNSNHTIEIEINQTLEIPCFQNSSSKISSEFTYAWSVENSSTDSWVLLSKGIKEDNGTQETLISQNHLISNSTLLKDRVKLGTDYRLHLSPVQIFDDGRKFSCHIRVGPNKILRSSTTVKVFAKPEIPVIVENNSTDVLVERRFTCLLKNVFPKANITWFIDGSFLHDEKEGIYITNEERKGKDGFLELKSVLTRVHSNKPAQSDNLTIWCMALSPVPGNKVWNISSEKITFLLGSEISSTDPPLSVTESTLDTQPSPASSVSPARYPATSSVTLVDVSALRPNTTPQPSNSSMTTRGFNYPWTSSGTDTKKSVSRIPSETYSSSPSGAGSTLHDNVFTSTARAFSEVPTTANGST

Assay [1] concerns the target T5, gD-tagged full-length PVR expressed on stably transfected CHO cells (UniProt P15151 21-417, limits assumed).
T5 construct: whole, on cells; also called CHO-PVR; PVR-expressing CHO cells
The experiment in a line: flow cytometry, biotinylated Fc-ligand on receptor-expressing CHO cells (+++ MFI = 1000-4999). The source says: (§1) Fc fusion proteins were biotinylated via amine coupling using NHS-PEO4-Biotin (Pierce) in PBS. Binding of biotin-ligands was detected using phycoerythrin-conjugated streptavidin (Caltag). Mouse monoclonal antibody to gD tag (Genentech) was conjugated to AlexaFluor 647 (Invitrogen). Antibodies were conjugated to appropriate fluor labels using standard techniques. Cells were stained per the manufacturer's instructions. Prior to staining, cells were blocked with appropriate sera or purified IgG. Acquisition was performed on a FACSCalibur (BD Biosciences) and analyzed with JoFlo software (Tree Star, Inc.). Forward and side scatter gated viable cells.
(§2) Receptors were expressed on CHO cells, and all ligands were -Fc constructs. MFI was determined by flow cytometry with biotinylated Fc-ligands, after gating on receptor-positive cells. Binding affinity (Kd) was determined by competition radioligand binding assay. Kd is indicated (nM) and is the average value from at least 3 independent assays, except where indicated (*).

Assay [2] deals with T6, gD-tagged full-length PVRL2 expressed on stably transfected CHO cells (UniProt Q92692 32-538, limits assumed).
T6 construct: whole, on cells
The experiment in a line: flow cytometry, biotinylated ligand + streptavidin-PE vs receptor expression on CHO transfectants.
Text: as §1

For assay [3], the target named is T5, gD-tagged full-length PVR expressed on …. The description is as above.
Text: as §1

The target in assay [4] is B2. The assay can be described thus: competition radioligand binding, 125I Fc-ligand on receptor-expressing CHO cells, Scatchard. How it is done: (§3) Plasmids were transfected into CHO cells using Lipofectamine LTX (Invitrogen). Expression of gD-tagged proteins was verified by flow cytometry using the Alexa-647 anti-gD conjugate. Stably-transfected cell lines were sorted twice by FACS for purity before use. Fc-fusion proteins constructed as described above were iodinated (¹²⁵I) using the Iodogen method. Binding studies were carried out on stable transfectants in triplicate with 0.1-3 nM iodinated ligand. […] Cell suspensions were harvested onto nitrocellulose membranes (Millipore) and washed extensively.
as §2

Assay [5] addresses B2. The experiment in a line: competition radioligand binding on CHO cells; upper end tied by Table 6 to PVR-Fc on CHO-TIGIT; PVR-Fc ligand on CHO-TIGIT (upper end of the range). How it is done:
as §3
(§4) Non-specific binding was determined using 2000-fold excess cold ligand and subtracted from total binding.

In assay [6] the target is B4. The assay can be described thus: flow cytometry, biotinylated ligand + streptavidin-PE vs receptor expression on CHO transfectants.
Text: as §1

In another assay the target is T1, ESAM (library protein). The experiment in a line: Octet biosensor, TIGIT-Fc loaded on an anti-human Fc sensor. How it is done: (§5) The resulting fusion protein was transiently expressed in and purified from CHO cells using standard affinity chromatography techniques. […] Proteins were tested for binding in HBS-P (10 mM Hepes, pH 7.4; 0.15M NaCl; 0.005% Surfactant P20). […] The biosensors were washed in buffer (30 seconds), placed into wells containing 5 μg/mL protein for three minutes, and washed again for 30 seconds. The sensors were reloaded and washed after every two binding cycles.

For assay [7], the target named is T2, TNFRSF10C (library protein). Described as above. How it is done:
as §5

The next assay deals with TEK (library protein) (UniProt Q02763 23-748, limits assumed). The assay is described as above. How it is done: as §5
In another assay the target is T3, IGFBP4 (library protein). The description is as above. How it is done:
as §5

The target in a further assay is T4, IL-19 (library protein). The assay is described as above. How it is done: as §5
The target in assay [8] is T5, gD-tagged full-length PVR expressed on …. The assay can be described thus: radioligand binding, iodinated TIGIT-Fc displaced by unlabeled TIGIT-Fc on PVR-expressing CHO cells. How it is done:
as §3, §4

The target in assay [9] is T7, gD-tagged full-length CD226 expressed on stably transfected CHO cells (UniProt Q15762 19-336, limits assumed).
T7 construct: whole, on cells; also called CHO-CD226
The experiment in a line: flow cytometry, biotinylated ligand + streptavidin-PE vs receptor expression on CHO transfectants.
Text: as §1

Assay [10] addresses T8, gD-tagged full-length CD96 expressed on stably transfected CHO cells (UniProt P40200 22-585, limits assumed).
T8 construct: whole, on cells; also called CHO-CD96; CD96-expressing CHO cells
The assay is described as above.
Text: as §1

In assay [11] the target is B4. The experiment in a line: Octet biosensor, TIGIT-Fc loaded on an anti-human Fc sensor. How it is done: as §5
The target in assay [12] is gD-tagged full-length PVR expressed on stably transfected CHO cells (UniProt P15151). The assay can be described thus: flow cytometry, biotinylated Fc-ligand on receptor-expressing CHO cells (+++ MFI = 1000-4999).

Chain of TEK (library protein) (Q02763 23-748 limits assumed): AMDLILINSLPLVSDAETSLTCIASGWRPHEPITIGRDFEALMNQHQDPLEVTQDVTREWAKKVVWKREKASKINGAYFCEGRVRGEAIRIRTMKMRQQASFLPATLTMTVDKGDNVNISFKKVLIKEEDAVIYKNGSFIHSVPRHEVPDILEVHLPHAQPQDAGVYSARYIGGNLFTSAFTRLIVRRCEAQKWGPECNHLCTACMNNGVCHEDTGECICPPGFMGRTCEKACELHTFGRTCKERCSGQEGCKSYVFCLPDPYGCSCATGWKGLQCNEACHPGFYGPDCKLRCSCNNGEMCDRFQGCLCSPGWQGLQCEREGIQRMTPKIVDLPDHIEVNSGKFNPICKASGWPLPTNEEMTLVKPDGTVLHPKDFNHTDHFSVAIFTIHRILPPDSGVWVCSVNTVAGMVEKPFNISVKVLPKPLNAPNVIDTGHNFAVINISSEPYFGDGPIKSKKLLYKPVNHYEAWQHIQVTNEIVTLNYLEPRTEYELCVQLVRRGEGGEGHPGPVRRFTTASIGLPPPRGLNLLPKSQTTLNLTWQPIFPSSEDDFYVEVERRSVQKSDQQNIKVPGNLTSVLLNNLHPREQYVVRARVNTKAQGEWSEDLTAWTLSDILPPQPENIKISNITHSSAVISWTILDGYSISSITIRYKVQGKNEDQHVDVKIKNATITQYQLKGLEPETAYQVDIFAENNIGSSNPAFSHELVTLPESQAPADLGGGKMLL

B1 showed an MFI in [1] of 1000 to 5000 mfi.

On to B2, for which the binding result in assay [2] and in [3] was “no binding” each time.

B3: the values for the Kd with PVR-Fc fusion protein [4] and in the assay with PVR-Fc fusion protein [5] were 3.15 nM and 1 to 3 nM, respectively. Moreover, the binding result in assay [6] is listed as “no binding”.

For the molecule B4, the binding result (with ESAM (library protein); in assay [7]; in the assay with TEK (library protein); in the assay with IGFBP4 (library protein); in the assay with IL-19 (library protein); in [9]) was “no binding” throughout. The binding result in [10] is given as “no binding”. The “IC50 (read off the curve)” value in assay [8] is about 4 nM. This molecule also showed an MFI in [1] of 1000 to 5000 mfi.

For B5, the binding result in assay [11] is “no binding”.

B6: in assay [12], the MFI lay in the range of 1000 to 5000 mfi.
